According to the Immune Epitope Database (IEDB):
pKd: −log10 of the molar value.

Tests used:
Test in all cases: IEDB peptide-MHC binding, purified MHC/competitive/radioactivity; filed as Kd, often an IC50 or EC50 that approximates it; ≥ and ≤ were set here for values at or beyond the usual limits of such assays
Details in all cases: source organism: human papillomavirus 18
HLA-A*11:02 = biological target: HLA-A*11:02
HLA-A*24:02 = biological target: HLA-A*24:02
HLA-A*02:01 = biological target: HLA-A*02:01
HLA-A*03:01 = biological target: HLA-A*03:01
HLA-A*01:01 = biological target: HLA-A*01:01

Sequence: SIPHAACHK
- pKd (HLA-A*11:02): 7.82

Sequence: VYGDTLEKL
- pKd (HLA-A*24:02): 6.65

Sequence: SLQDIEITC
- pKd (HLA-A*02:01): 6.27

Sequence: KCIDFYSRI
- pKd (HLA-A*02:01): 6.38

Sequence: LIRCLRCQK
- pKd (HLA-A*03:01): 6.28
- pKd (HLA-A*11:02): 6.43

Sequence: GQCHSCCNR
- pKd (HLA-A*11:02): 7.19

Sequence: ATLQDIVLH
- pKd (HLA-A*11:02): 7.92

Sequence: TEVFEFAFK
- pKd (HLA-A*11:02): 6.59

Sequence: RCQKPLNPA
- pKd (HLA-A*11:02): 6.25

Sequence: KLPDLCTEL
- pKd (HLA-A*02:01): 6.22

Sequence: LFVVYRDSI
- pKd (HLA-A*03:01): 6.36

Sequence: HLNEKRRFH
- pKd (HLA-A*03:01): 6.18

Sequence: RHTMLCMCC
- pKd (HLA-A*24:02): 6.13

Sequence: FAFKDLFVV
- pKd (HLA-A*02:01): 8.52

Sequence: FKDLFVVYR
- pKd (HLA-A*03:01): 6.48
- pKd (HLA-A*02:01): 6.30
- pKd (HLA-A*01:01): 6.13
- pKd (HLA-A*11:02): 6.30

Sequence: DLFVVYRDS
- pKd (HLA-A*03:01): 6.00

Sequence: FQQLFLNTL
- pKd (HLA-A*02:01): 6.38

Sequence: ELTEVFEFA
- pKd (HLA-A*02:01): 6.30

Sequence: CIDFYSRIR
- pKd (HLA-A*03:01): 6.56
- pKd (HLA-A*01:01): 6.09
- pKd (HLA-A*11:02): 7.57

Sequence: IEITCVYCK
- pKd (HLA-A*03:01): 6.70

Sequence: LLIRCLRCQ
- pKd (HLA-A*03:01): 6.29

Sequence: LFLNTLSFV
- pKd (HLA-A*02:01): 6.09

Sequence: RQERLQRRR
- pKd (HLA-A*03:01): 6.32

Sequence: LQDIEITCV
- pKd (HLA-A*03:01): 6.20
- pKd (HLA-A*01:01): 6.01

Sequence: VYCKTVLEL
- pKd (HLA-A*24:02): 7.62
- pKd (HLA-A*11:02): 6.25

Sequence: FLNTLSFVC
- pKd (HLA-A*02:01): 6.03

Sequence: SVYGDTLEK
- pKd (HLA-A*03:01): 7.49
- pKd (HLA-A*11:02): 8.70

Sequence: GLYNLLIRC
- pKd (HLA-A*03:01): 6.50
- pKd (HLA-A*02:01): 6.87
- pKd (HLA-A*11:02): 6.73

Sequence: DIEITCVYC
- pKd (HLA-A*03:01): 6.34
- pKd (HLA-A*02:01): 6.19
- pKd (HLA-A*01:01): 6.30

Sequence: HTMLCMCCK
- pKd (HLA-A*03:01): 7.14
- pKd (HLA-A*11:02): 8.30

Sequence: NTGLYNLLI
- pKd (HLA-A*01:01): 6.30

Sequence: VVYRDSIPH
- pKd (HLA-A*11:02): 8.30
